# Biological target: T1, Abf1 (Saccharomyces cerevisiae) (UniProt P14164)
# T1 sequence: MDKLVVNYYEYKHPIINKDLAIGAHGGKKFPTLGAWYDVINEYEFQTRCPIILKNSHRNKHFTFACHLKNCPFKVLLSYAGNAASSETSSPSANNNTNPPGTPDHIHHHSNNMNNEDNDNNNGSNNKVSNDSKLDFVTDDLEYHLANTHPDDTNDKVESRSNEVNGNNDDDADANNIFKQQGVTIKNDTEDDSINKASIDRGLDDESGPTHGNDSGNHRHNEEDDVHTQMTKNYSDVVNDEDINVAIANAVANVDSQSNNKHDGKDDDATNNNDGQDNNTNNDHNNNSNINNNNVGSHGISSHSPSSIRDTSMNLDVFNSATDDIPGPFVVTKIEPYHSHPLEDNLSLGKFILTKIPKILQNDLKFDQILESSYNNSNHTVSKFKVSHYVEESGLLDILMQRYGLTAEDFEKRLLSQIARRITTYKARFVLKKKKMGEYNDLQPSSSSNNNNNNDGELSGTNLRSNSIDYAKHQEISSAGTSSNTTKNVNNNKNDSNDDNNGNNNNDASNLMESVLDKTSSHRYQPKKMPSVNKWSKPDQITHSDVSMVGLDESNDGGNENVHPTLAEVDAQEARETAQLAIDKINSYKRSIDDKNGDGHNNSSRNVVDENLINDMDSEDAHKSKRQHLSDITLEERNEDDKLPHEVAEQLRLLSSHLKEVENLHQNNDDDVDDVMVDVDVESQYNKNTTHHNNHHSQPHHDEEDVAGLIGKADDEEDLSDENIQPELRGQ
# Assay: EMSA
# Conditions: 11.87 mM HEPES-KOH pH 7.9, 3 mM Tris-Cl, 96.67 mM NaCl, 3.33 mM KCl, 5.3 mM MgCl2, 0.13 mM Mg acetate, 1.33 uM ZnCl2, 0.05% NP-40, 10% glycerol, 100 ug/mL BSA …
row,Sequence,Kd
1,ACAGGATGTATATATCTGACACGTGCCTGGAGACTAGGGAGTAATCCCCTTGGCGGTTAAAACGCGGGGGACAGCGCGTACGTGCGTTTAAGCGGTGCTAGAGCTGTCTACGACCAATTGAGCGGCCTCGGCACCGGGATTCTCCAGGGCGGCCGCTTATCGTATTGCATGATATGGTGATGACCGCGGACCTGCAGGCATGCAAGCTTGAGTATTCTATAGTGTCA (double strand) [NC-80/T-T nucleosome],2.52 nM
2,ACAGGATGTATATATCTGACACGTGCCTGGAGACTAGGGAGTAATCCCCTTGGCGGTTAAAACGCGGGGGACAGCGCGTACGTGCGTTTAAGCGGTGCTAGAGCTGTCTACGACCAATTGAGCGGCCTCGGCACCGGGATTCTCCAGGGCGGCCGCTTATCGTATTGCATGATAGGGTGATGACCGCGGACCTGCAGGCATGCAAGCTTGAGTATTCTATAGTGTCA (double strand) [NC-80/T-G nucleosome],2.49 nM
3,ACAGGATGTATATATCTGACACGTGCCTGGAGACTAGGGAGTAATCCCCTTGGCGGTTAAAACGCGGGGGACAGCGCGTACGTGCGTTTAAGCGGTGCTAGAGCTGTCTACGACCAATTGAGCGGCCTCGGCACCGGGATTCTCCAGGGCGGCCGCTTATCGTATAAAGTGATAGGGTGATGACCGCGGACCTGCAGGCATGCAAGCTTGAGTATTCTATAGTGTCA (double strand) [NC-80/A3G nucleosome],2.22 nM
4,ACAGGATGTATATATCTGACACGTGCCTGGAGACTAGGGAGTAATCCCCTTGGCGGTTAAAACGCGGGGGACAGCGCGTACGTGCGTTTAAGCGGTGCTAGAGCTGTCTACGACCAATTGAGCGGCCTCGGCACCGGGATTCTCCAGGGCGGCCGCTAATCGTATTGCATGATATGGTGATGACCGCGGACCTGCAGGCATGCAAGCTTGAGTATTCTATAGTGTCA (double strand) [NC-80/A-T nucleosome],2.39 nM

# Biological target: T2, Reb1 (Saccharomyces cerevisiae) (UniProt P21538)
# T2 sequence: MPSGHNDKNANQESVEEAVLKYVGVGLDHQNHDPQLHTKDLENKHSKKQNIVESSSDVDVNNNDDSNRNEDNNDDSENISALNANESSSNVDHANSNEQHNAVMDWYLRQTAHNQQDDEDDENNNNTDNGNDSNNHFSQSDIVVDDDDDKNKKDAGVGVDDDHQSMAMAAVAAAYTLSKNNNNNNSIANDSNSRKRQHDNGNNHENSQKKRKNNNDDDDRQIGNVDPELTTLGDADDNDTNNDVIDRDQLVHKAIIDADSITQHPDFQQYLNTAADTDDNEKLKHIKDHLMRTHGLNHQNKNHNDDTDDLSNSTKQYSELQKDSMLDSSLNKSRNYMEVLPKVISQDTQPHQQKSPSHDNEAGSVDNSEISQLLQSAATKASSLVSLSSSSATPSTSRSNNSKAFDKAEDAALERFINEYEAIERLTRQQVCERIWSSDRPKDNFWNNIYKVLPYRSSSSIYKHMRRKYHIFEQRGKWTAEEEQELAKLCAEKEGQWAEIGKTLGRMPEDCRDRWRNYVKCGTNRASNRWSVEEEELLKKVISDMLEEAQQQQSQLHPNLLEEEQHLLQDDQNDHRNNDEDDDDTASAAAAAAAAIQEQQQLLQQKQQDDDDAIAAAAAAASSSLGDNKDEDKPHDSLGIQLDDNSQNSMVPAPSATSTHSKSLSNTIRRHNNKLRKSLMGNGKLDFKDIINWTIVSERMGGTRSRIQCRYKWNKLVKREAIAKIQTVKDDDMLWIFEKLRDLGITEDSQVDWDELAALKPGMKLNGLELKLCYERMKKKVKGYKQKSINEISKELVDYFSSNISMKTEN
# Assay: EMSA
# Conditions: 11.87 mM HEPES-KOH pH 7.9, 3 mM Tris-Cl, 96.67 mM NaCl, 3.33 mM KCl, 5.3 mM MgCl2, 0.13 mM Mg acetate, 1.33 uM ZnCl2, 0.05% NP-40, 10% glycerol, 100 ug/mL BSA …
row,Sequence,Kd
1,ACAGGATGTATATATCTGACACGTGCCTGGAGACTAGGGAGTAATCCCCTTGGCGGTTAAAACGCGGGGGACAGCGCGTACGTGCGTTTAAGCGGTGCTAGAGCTGTCTACGACCAATTGAGCGGCCTCGGCACCGGGATTCTCCAGGGCGGCCGGACGGGTAACGCATCACCATGGTGATGACCGCGGACCTGCAGGCATGCAAGCTTGAGTATTCTATAGTGTCA (double strand) [NC-80/G-TC nucleosome],1.11 nM
2,ACAGGATGTATATATCTGACACGTGCCTGGAGACTAGGGAGTAATCCCCTTGGCGGTTAAAACGCGGGGGACAGCGCGTACGTGCGTTTAAGCGGTGCTAGAGCTGTCTACGACCAATTGAGCGGCCTCGGCACCGGGATTCTCCAGGGCGGCCGCTCGGGTAAAGCATCACCATGGTGATGACCGCGGACCTGCAGGCATGCAAGCTTGAGTATTCTATAGTGTCA (double strand) [NC-80/T-AG nucleosome],5.94 nM
3,ACAGGATGTATATATCTGACACGTGCCTGGAGACTAGGGAGTAATCCCCTTGGCGGTTAAAACGCGGGGGACAGCGCGTACGTGCGTTTAAGCGGTGCTAGAGCTGTCTACGACCAATTGAGCGGCCTCGGCACCGGGATTCTCCAGGGCGGCCGCCCGGGTAACGCATCACCATGGTGATGACCGCGGACCTGCAGGCATGCAAGCTTGAGTATTCTATAGTGTCA (double strand) [NC-80/G-GG nucleosome],1.06 nM
4,ACAGGATGTATATATCTGACACGTGCCTGGAGACTAGGGAGTAATCCCCTTGGCGGTTAAAACGCGGGGGACAGCGCGTACGTGCGTTTAAGCGGTGCTAGAGCTGTCTACGACCAATTGAGCGGCCTCGGCACCGGGATTCTCCAGGGCGGCCGGCCGGGTAACGCATCACCATGGTGATGACCGCGGACCTGCAGGCATGCAAGCTTGAGTATTCTATAGTGTCA (double strand) [NC-80/G-GC nucleosome],1.07 nM

# Source: paper PMC12305957
